Patent US20120263732A1, “CD40 ANTIBODY FORMULATION AND METHODS” (PFIZER INC., priority 2003, published 2012)

How the values were obtained:
[1] = system: lymph node cells obtained from cancer patients; assay: IFNγ producing cells by ELISPOT in lymph node cell cultures stimulated with tumor antigen; type: cell-based, human; conditions: antibody 1 μg/mL (6.7 nM); ELISPOT following restimulation
Description: Effects of a human anti-CD40 antibody (21.4.1) on lymph node cells obtained from cancer patients stimulated with autologous tumor cells was examined.
Lymph node cells and tumors were collected from patients with renal cell carcinoma, non-small cell lung cancer, transitional cell carcinoma of the bladder, colon cancer, prostate cancer, and head and neck cancer. The lymph node cells were placed into culture together with irradiated collagenase treated tumors (recovered from the same patient) in the presence or absence of 21.4.1 (1 μg/mL; 6.7 nM). Proliferation was assessed using ^3H-thymidine 96 hours later. The number of INFγ producing cells was assessed by ELISPOT, following restimulation.

[2] = system: Fc receptors (FcR) on cynomolgus peripheral blood leukocytes; assay: 125I-antibody binding to Fc receptors on cynomolgus leukocytes; conditions: 125I-labelled antibody; 4° C., sodium azide; 21.4.1: excess unlabeled human IgG2 competitor, n=4
Procedure: The binding of an anti-CD40 antibody (21.4.1) to Fc receptors on human and cynomolgus leukocytes was examined.
(§1) The binding of 21.4.1 to Fc receptors (FcR) on human or cynomolgus peripheral blood leukocytes was determined by using ^125I-21.4.1 and a human IgG1 control mAb. Human leukocytes from normal donors or cynomolgus leukocytes were isolated from whole blood using plasma gel and washed thoroughly to allow dissociation of receptor-bound serum immunoglobulins. Centrifugation through a sucrose cushion was used to separate cell-bound and free antibodies. Studies were performed at 4° C. in the presence of sodium azide to prevent receptor internalization.
(§2) 21.4.1 was tested for specific binding to FcR by using excess unlabeled human IgG2 isotype matched antibody as a competitor. ^125I-21.4.1 specific binding to FcR on human leukocytes (n=5 donors) was −1.0±8.5%, and specific binding to FcR on cynomolgus leukocytes (n=4) was 15±13%. […] The specific binding of the IgG1 control antibody to FcR on human and cynomolgus leukocytes accounted for 56% and 51% of the total bound radioactivity, respectively.

[3] = system: CD40 receptors on cynomolgus leukocytes; assay: 125I-21.4.1 binding to CD40 receptors on cynomolgus leukocytes; conditions: 500-fold excess unlabeled 21.4.1; total % specific binding minus % binding to FcR
Procedure: as §1, §2

[4] = system: cynomolgus B-cells; assay: Pharmacodynamics: B-cell surface marker upregulation after IV dosing (flow cytometry); type: in vivo, cynomolgus monkeys
Procedure: A CD40 antibody (21.4.1) was administered intravenously at various doses (1 mg/kg n=4, 3 mg/kg n=4, 5 mg/kg n=2 and 10 mg/kg n=2) to cynomolgus monkeys. Heparinized blood was drawn from the monkeys at various time points pre- and postdose. The blood was aliquoted and stained. Data were acquired using a Becton Dickinson FACSCalibur and analyzed with CellQuest software. Results were calculated as fold increases in median fluorescence intensity as compared to pre-dose values.

[5] = Primate anti-human antibody (PAHA) response; type: in vivo, cynomolgus monkeys; conditions: all monkeys in the 3, 5, and 10 mg/kg dose groups; 14 to 28 days following administration
Procedure: The observed dose-dependent clearance may be in part due to the binding of 21.4.1 to CD40 receptors that are widely expressed in normal tissues and the subsequent internalization and elimination of the antibody-receptor complex. Development of primate anti-human antibody (PAHA) response may also contribute to the accelerated clearance in some monkeys. PAHA was evaluated only after individual serum concentrations of 21.4.1 reached the lower limit of quantitation (LLOQ, 0.03 μg/mL) since the presence of 21.4.1 in test serum interferes with the assay for PAHA. Anti-21.4.1 antibodies were detected in all monkeys in the 3, 5, and 10 mg/kg dose groups at 14 to 28 days following administration of the antibody.

[6] = system: CD40(−) erythroleukemic tumor, K562; assay: CD40(−) K562 erythroleukemic tumor growth in SCID-beige mice; type: in vivo, human tumor in SCID-beige mice
Procedure: The effects of a CD40 antibody (21.4.1) on the growth of CD40(−) tumors (e.g., erythroleukemia and colon carcinoma) were examined. In particular, K562 tumors were chosen to assess the efficacy of 21.4.1 against a CD40(−) low immunogenic (class I and II negative) tumor.
SCID-beige mice were injected SC with the CD40(−) erythroleukemic tumor, K562 (ATCC CCL-243) alone or in the presence of human peripheral blood T cells and DCs. Animals received a single IP injection of 21.4.1 either at the time of tumor injection or 5 days later using various dose levels.

[7] = system: human breast tumor, BT 474; assay: BT 474 breast tumor growth with human T cells and DC in SCID-beige mice; type: in vivo
Description: SCID-beige mice were challenged with the human breast tumor, BT 474 (ATCC HTB-20), SC, together with human peripheral blood T cells and DC. Animals received a single dose of 21.4.1 (IP) at the time of tumor injection.

[8] = Multiple-dose IV pharmacokinetics; type: in vivo, cynomolgus monkeys
Procedure: In a multiple-dose study, 21.4.1 was administered intravenously to cynomolgus monkeys (2/sex/dose) at doses of 0.3, 1.0, and 10 mg/kg on Days 1, 3, 5, 7, and 9 for 5 total doses. Blood was collected on Days 1 and 9 before dosing and 0.5, 6, and 24 hours after dosing and before dosing and 0.5 hour after dosing on Day 5 to measure serum drug concentrations. Systemic exposure to 21.4.1, as assessed by mean Cmax and mean AUG(0-24), increased with increasing dose from 0.3 to 10 mg/kg on both Day 1 and Day 9 (Table 2). Similar exposures (mean Cmax and mean AUC) were observed on Days 1 and 9 in the 0.3 and 1 mg/kg dose groups. […] Gender-related differences in exposure were not observed.

[9] = 0.3 mg/kg IV every other day, Day 1
[10] = 0.3 mg/kg IV every other day, Day 9
[11] = 1.0 mg/kg IV every other day, Day 1
[12] = 1.0 mg/kg IV every other day, Day 9
[13] = 10 mg/kg IV every other day, Day 1
[14] = 10 mg/kg IV every other day, Day 9

## 21.4.1: human agonist anti-CD40 antibody; amino acid sequences SEQ ID NOs:5-8; hybridoma deposit PTA-3605
[1]
  number of IFNγ+ positive T cells: enhanced
[2]
  specific binding to FcR on cynomolgus leukocytes: 15±13%
[3]
  specific binding to CD40 receptors on cynomolgus leukocytes: 67%
[4]; 24 hours after dosing, 3 mg/kg and 10 mg/kg IV
  CD23 expression on B-cells, increase vs pre-dose: ≥ 20 fold
[4]; IV, MHC Class II and CD23 on CD20+ cells
  dose producing a saturating pharmacodynamic response in cynomolgus B-cells: 1 mg/kg
[4]; after IV dosing
  CD71 (transferrin receptor) level: moderate upregulation
  CD80 expression: did not change significantly
  CD86 costimulatory molecule level: moderate upregulation
[4]; while 21.4.1 levels remained above 1 μg/ml
  upregulation of both surface markers (MHC Class II, CD23) persisted, increase: ≥ 2 fold
[5]
  anti-21.4.1 antibodies (PAHA): detected
[6]; K562 with human T cells and DC, single IP injection, Day 21
  amount to cause a 50% inhibition of tumor growth (IC50): 0.005 mg/kg
[6]; in the absence of immune cells
  growth of K562 tumor: not inhibited
[7]; BT 474 with human T cells and DC, single IP dose at tumor injection, Day 53
  amount necessary to cause a 50% reduction in tumor growth: 0.005 mg/kg
[7]; in the presence of immune cells, single injection
  growth of BT 474 cells: prevented the growth
[8]; [9]
  AUC(0-24): 47.7 ± 15.4 µg·h/mL
  Cmax: 4670 ± 1710 ng/mL
  Tmax: 1.9 ± 2.8 h
[8]; [10]
  AUC(0-24): 55.6 ± 47.1 µg·h/mL
  Cmax: 7400 ± 2900 ng/mL
  Tmax: 0.5 ± 0.0 h
[8]; [11]
  AUC(0-24): 387 ± 59 µg·h/mL
  Cmax: 26700 ± 5100 ng/mL
  Tmax: 0.5 ± 0.0 h
[8]; [12]
  AUC(0-24): 219 ± 151 µg·h/mL
  Cmax: 12300 ± 9100 ng/mL
  Tmax: 1.9 ± 2.8 h
[8]; [13]
  AUC(0-24): 4130 ± 600 µg·h/mL
  Cmax: 226000 ± 29000 ng/mL
  Tmax: 1.9 ± 2.8 h
[8]; [14]
  AUC(0-24): 11400 ± 2100 µg·h/mL
  Cmax: 577000 ± 163000 ng/mL
  Tmax: 3.3 ± 3.2 h
[8]; 10 mg/kg dose group
  increase of mean AUG(0-24) from Day 1 to Day 9: 2.8 fold
  increase of mean Cmax from Day 1 to Day 9: 2.6 fold
